Consider three substances from paper PMC2671562.

Assay [1] addresses ARNT PAS-B (Homo sapiens) (UniProt P27540). The experiment in a line: NMR. To be noted: cited from earlier work.
Assay [2] addresses Drosophila PERIOD fragment lacking helix αF, dPERΔαF[232–538] (Drosophila melanogaster) (UniProt P07663). The experiment in a line: AUC; sedimentation equilibrium, interference optics, 10 °C, 25 mM HEPES pH 7.7, 100 mM NaCl, 2 mM DTE; four starting concentrations from stocks of 0.8–2 mg/ml; dimer to monomers, K D = 1/K A.

By Kd is commonly meant the constant that tells how readily two partners part at equilibrium.

HIF-2α PAS-B, sequence (Q99814 239-350): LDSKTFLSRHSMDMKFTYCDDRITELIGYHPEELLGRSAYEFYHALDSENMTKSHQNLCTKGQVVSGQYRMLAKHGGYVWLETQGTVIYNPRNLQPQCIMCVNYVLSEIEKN
ARNT PAS-B, sequence (P27540 356-470): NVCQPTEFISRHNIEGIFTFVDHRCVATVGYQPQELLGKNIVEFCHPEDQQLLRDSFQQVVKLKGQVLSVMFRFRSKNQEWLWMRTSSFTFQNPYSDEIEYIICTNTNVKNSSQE

Turning to ARNT PAS-B (from UniProt P27540), the Kd in assay [1] is 500 µM.

As to “Drosophila PERIOD fragment lacking helix αF, dPERΔαF[232–538] (from UniProt P07663 232-538) (domain or fragment)”, the Kd in assay [2] amounted to 256 µM.

For the substance HIF-2α PAS-B (from UniProt Q99814), in assay [1], the Kd is 30 µM.
